From patent US7045604B2, “Family of genes encoding apoptosis-related peptides, peptides encoded thereby and methods of use thereof” (Tanox, Inc., priority 1996, dated 2006)
Numbered stars: 1 amine (or outer) side, 2 acyl side, 3 side chain; on linkers, the order of the positions; unused ones are H or OH. Bridge positions count the residues as written; N and C are the ends. Square brackets hold non-standard residues; d marks the D form. Peptide text beside a SMILES is read from it. I, II: the chains in the order shown. Actinocin(9to1) = Cc1c2oc3c(C)ccc(C(=O)[*:1])c3nc-2c(C(=O)[*:2])c(N)c1=O; NMeV = CN[C@H](C(=O)O)C(C)C; Sar = CNCC(=O)O

Key:
C3H/10T1/2 cells = test: Apoptosis of exponentially proliferating or quiescent 10T1/2 cells (adherent / non-adherent cell count); format: cell-based, mouse; details: for apoptosis / cell death: quiescent 10T1/2 cells arrested in G0
Procedure: C3H/10T1/2 cells were grown in Eagle's basal medium (BME) supplemented with 10% heat-inactivated fetal bovine serum (FBS) at 37° C. in a humidified 5% CO2 atmosphere without antibiotics. Cells were plated at 2×10^3 cells/mL and fed every 3–4 days. Approximately 2 weeks after the initial seeding, the cells were completely quiescent and few if any mitotic cells were present. To analyze the effect of serum deprivation or cycloheximide treatment, the exponentially proliferating (approximately 75% confluent) or quiescent cultures were transferred to serum-free medium or medium supplemented with 10 μg/mL cycloheximide. At 24 hours, the apoptotic (i.e. non-adherent) cells and the non-apoptotic (i.e. adherent) cells were collected separately and their amounts were evaluated using a cell counter (Coulter Counter® ZM). Serum free conditioned medium was obtained after 24 hour incubation of quiescent 10T1/2 cells in BME. The RNA was isolated by the guanidine-isothiocyanate method described in Chomezinski and Sacchi (1987) Anal. Biochem., 162:156–59. 20 μg samples of total RNA were subjected to electrophoresis in a 1.2% agarose formaldehyde gel. Sambrook et al. (eds) (1989).

msarp1 = msarp1 expression in serum deprived exponentially growing 10T1/2 cells (Northern hybridization); format: cell-based, mouse; details: cells grown in serum free media supplemented with TPA
Procedure: Isolated DNA fragments were labeled with [^32P]dCTP (3000 Ci/mmol, Amersham) in a random priming reaction according to Feinberg and Vogelstein, (1982), supra. Hybridization was carried out according to the standard protocol described in Sambrook et al. (1989), supra. The membranes were washed two times with 2×SSC at room temperature for 30 minutes. Following two additional washes at 56° C. in 0.1×SSC, 0.1% SDS, the membranes were autoradiographed onto a Kodak X-Omat® films.
Since it has previously been shown that media conditioned with exponentially growing 10T1/2 cells also prevents apoptosis, we also analyzed msarp1 expression in serum deprived exponentially growing cells. RNA was isolated at different time points after removal of serum.

β-catenin = test: Intracellular β-catenin in MCF7 transfectants (Western immunoblot, immunohistochemistry); format: cell-based, human; details: for intracellular concentration of β-catenin: Western immunoblot, MCF7 transfectants vs pcDNA3 control
Procedure: To determine whether SARPs interfered with Wnt-frizzled protein interaction, the expression of β-catenin in MCF7-transfectants was compared. The experiment was performed as follows. Cell Cultures. MCF7 human breast adenocarcinoma cells were plated at 2×10^5 cells/ml and cultured in Modified Eagle Medium (MEM) supplemented with 10% FBS. Serum free conditioned medium was obtained after 24 hour incubation of quiescent MCF7 cells in MEM.
(§1) Transfection of MCF7. MCF7 cells were transfected with the pcDNA3 mammalian expression vector (Invitrogen), containing either no insert, msarp1, or hsarp2 cDNAs, using LipofectAMINE reagent (Gibco) according to manufacturer's protocol. Stable transfectants and two-three weeks later single cell originated clones were selected with 1 mg/ml G418 and expression of the respective genes was confirmed by Northern hybridization.
Immunohistochemistry. Paraformaldehyde-fixed transfected MCF7 cells grown on 4-well Lab-Tek® chamber slides were probed by anti-β-catenin monoclonal IgG (Transduction Laboratories). Staining was performed by avidin-biotin-peroxydase system (Vector Laboratories) using diaminobenzidine as a substrate. IgG isolated from preimmune serum was used as a negative control.
Western Immunoblot. For Western analysis the samples of conditioned media were concentrated using CENTRIPREP®-10 concentrators (AMICON). Cells were harvested in extraction buffer consisting of 20 mM tris-HCl (pH 7.8), 5 mM MgCl2, 250 mM sucrose, 1% NP40. After 1 hour incubation on ice extracts were clarified by centrifugation. Protein concentrations of the cellular extracts were determined using DC Protein Assay kit (Bio Rad). Equal amount of proteins were subjected to SDS/PAGE (Sambrook, J., et al. (1989) Molecular Cloning: A Laboratory Manual (Second ed.) (CSHL Press), transferred onto nitrocellulose membranes, and probed with the anti-GST-mSARP1 polyclonal affinity purified IgG (1 μg/mL) or anti-β-catenin monoclonal IgG (Transduction Laboratories).

[1] = test system: MCF7 breast adenocarcinoma cell line; test: Sensitivity of stably transfected MCF7 cells to cytotoxic stimuli; format: cell-based, human
Description: The MCF7 breast adenocarcinoma cell line was chosen as a model to study the involvement of SARP proteins in the processes of apoptosis. The programmed cell death of these cells induced by different agents has been well characterized. Zyed et al. (1994) Cancer Res. 54:825–831. […] MCF7 cells were stably transfected with a pcDNA3 mammalian expression vector bearing full length msarp1 or hsarp2. The transfectants expressing msarp1 and hsarp2 were selected by Northern hybridization. […] Hannun and Obeid (1995) T. Biochem. Sci. 20:73–7; and Kolesnick and Fuks (1995) J. Exp. Med. 181:1949–52.
as §1

[2] = test system: MCF7 breast carcinoma cells; test: Viability / apoptosis of MCF7 cells transfected with hsarp2 in pcDNA3; format: cell-based, human
Procedure: The NotI/XbaI fragment of hsarp2 was inserted into the NotI/XbaI sites of the mammalian expression vector pcDNA3 (Invitrogen). MCF7 breast carcinoma cells were transfected with this construct using LipofectAMINE reagent (Gibco BRL) according to manufacturer's protocol. The percentage of living cells was estimated by counting the relative amount of adherent cells using a Coulter Counter® (NZ). […] The cells were also treated with hTNF (50 ng/ml) and adriamycin (1 μg/ml). The results obtained are depicted in FIG. 6.

Molecule: α-amanitin
- apoptosis / cell death (C3H/10T1/2 cells): Apoptosis of G0 is also induced

Molecule: C[C@@H]1C[C@@H]([C@H](O)CC2CC(=O)NC(=O)C2)C(=O)[C@@H](C)C1 [cycloheximide]
- apoptosis (C3H/10T1/2 cells; exponentially proliferating 10T1/2 cells, serum deprivation): apoptosis is delayed
- apoptosis / cell death (C3H/10T1/2 cells): rapidly induces death

Molecule: COc1ccc(C[C@H](N)C(=O)N[C@H]2[C@@H](O)[C@H](n3cnc4c(N(C)C)ncnc43)O[C@@H]2CO)cc1 [puromycin]
- apoptosis / cell death (C3H/10T1/2 cells): Apoptosis of G0 is also induced

Molecule: Cc1c2oc3c(C)ccc(C(=O)N[C@@H]4C(=O)N[C@H](C(C)C)C(=O)N5CCC[C@H]5C(=O)N(C)CC(=O)N(C)[C@@H](C(C)C)C(=O)O[C@@H]4C)c3nc-2c(C(=O)N[C@@H]2C(=O)N[C@H](C(C)C)C(=O)N3CCC[C@H]3C(=O)N(C)CC(=O)N(C)[C@@H](C(C)C)C(=O)O[C@@H]2C)c(N)c1=O [actinomycin D] (I: T[dV]P[Sar][NMeV] / II: T[dV]P[Sar][NMeV]; ester I:1-I:C, II:1-II:C; linker I:N-II:N via Actinocin(9to1))
- apoptosis / cell death (C3H/10T1/2 cells): Apoptosis of G0 is also induced

Molecule: CCCCCCCCCCCCCC(=O)O[C@@H]1[C@@H](C)[C@@]2(O)[C@@H](C=C(CO)C[C@]3(O)C(=O)C(C)=C[C@@H]23)[C@H]2C(C)(C)[C@]12OC(C)=O [TPA]
- induction of msarp1 message (msarp1): No induction of msarp1

B1: hSARP2: human secreted apoptosis related protein of 314 amino acids encoded by hsarp2 cDNA, SEQ ID NO: 18 (protein)
chain: SEYDYVSFQSDIGPYQSGRFYTKPPQCVDIPADLRLCHNVGYKKMVLPNLLEHETMAEVKQQASSWVPLLNKNCHAGTQVFLCSLFAPVCLDRPIYPCRWLCEAVRDSCEPVMQFFGFYWPEMLKCDKFPEGDVCIAMTPPNPTEASKPQGTTVCPPCDNELKSEAIIEHLCASEFALRMKIKEVKKENGDKKIVPKKKKPLKLGPIKKKDLKKLVLYLKNGADCPCHQLDNLSHHFLIMGRKVKSQYLLTAIHKWDKKNKEFKNFMKKMKNHECPTFQSVFK
- intracellular concentration of β-catenin (β-catenin): decreases the intracellular concentration of β-catenin
- cell sensitivity to apoptosis induced by TNF [1]: sensitized the cells to apoptosis
- cell sensitivity to apoptosis induced by ceramide [1]: sensitized the cells to apoptosis
- growth rate and cell cycle vs parental cells [1]: not significantly different
- percentage of viable cells ([2]; MCF7 transfected with pcDNA3-hsarp2, adherent cells counted): decrease in the percentage of viable cells
- programmed cell death ([2]; breast carcinoma cell line, increased expression of hsarp2, dose dependent): increase programmed cell death
- percentage of cells undergoing apoptosis in culture ([2]; hsarp2 in expression vector transfected into human cell lines): increases

B2: mSARP1: mouse secreted apoptosis related protein of 295 amino acids encoded by msarp1, SEQ. ID. NO: 2 (protein)
chain: MPRGPASLLLLVLASHCCLGSARGLFLFGQPDFSYKRTNCKPIPANLQLCHGIEYQNMRLPNLLGHETMKEVLEQAGAWIPLVMKQCHPDTKKFLCSLFAPVCLDDLDETIQPCHSLCVQVKDRCAPVMSAFGFPWPDMLECDRFPQDNDLCIPLASSDHLLPATEEAPKVCEACKTKNEDDNDIMETLCKNDFALKIKVKEITYINRDTKIILETKSKTIYKLNGVSERDLKKSVLWLKDSLQCTCEEMNDINAPYLVMGQKQGGELVITSVKRWQKGQREFKRISRSIRKLQC
- intracellular concentration of β-catenin (β-catenin): not sensitive enough to discern a significant difference
- concentration of β-catenin (β-catenin; immunohistochemistry, MCF7 transfectants): higher concentration of β-catenin
- cell sensitivity to apoptosis induced by TNF [1]: higher resistance
- cell sensitivity to apoptosis induced by ceramide [1]: higher resistance
- growth rate and cell cycle vs parental cells [1]: not significantly different
